Test results from article PMC9482650, “Quantitative fragmentomics allow affinity mapping of interactomes” (Nature Communications, 2022).

B1: FKBP4, Q02790 (peptide)
chain: GSQSQVETEA

Each binder was assayed against AHNAK1, Q09666 (assay: holdup assay). Details: plain residues with an end cap or a label only (N-terminal biotin on a linker: ado-ado).
Design: key: below the threshold = too weak to quantify, mostly under pKd 3.1 to 4

Sequence of AHNAK1, Q09666 (Q09666 4-100): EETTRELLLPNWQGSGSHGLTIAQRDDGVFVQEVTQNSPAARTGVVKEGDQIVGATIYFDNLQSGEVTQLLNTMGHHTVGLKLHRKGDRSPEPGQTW

| Binder | pKd |
| --- | --- |
| B1 | below the threshold |

What follows are binders tested against T1, APBA1_2, Q02410 (assay: holdup assay). Details: plain residues with an end cap or a label only (N-terminal biotin on a linker: ado-ado).
T1 sequence (Q02410 742-832, limits assumed, looked up): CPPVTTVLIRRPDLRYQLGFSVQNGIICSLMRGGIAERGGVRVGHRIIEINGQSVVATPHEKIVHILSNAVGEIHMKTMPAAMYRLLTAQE
Design: key: below the threshold = too weak to quantify, mostly under pKd 3.1 to 4

| Binder | pKd |
| --- | --- |
| B1 | below the threshold |

These binders were tested against T2, APBA3_1, O96018 (assay: holdup assay). Details: plain residues with an end cap or a label only (N-terminal biotin on a linker: ado-ado).
T2 sequence (O96018 389-490, limits assumed, looked up): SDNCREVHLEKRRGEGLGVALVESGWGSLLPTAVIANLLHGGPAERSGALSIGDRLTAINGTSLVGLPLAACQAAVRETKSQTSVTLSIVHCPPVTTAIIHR
Design: key: below the threshold = too weak to quantify, mostly under pKd 3.1 to 4

| Binder | pKd |
| --- | --- |
| B1 | below the threshold |

These binders were tested against T3, DFNB31_1, Q9P202 (assay: holdup assay). Details: plain residues with an end cap or a label only (N-terminal biotin on a linker: ado-ado).
T3 sequence (Q9P202 135-233, limits assumed, looked up): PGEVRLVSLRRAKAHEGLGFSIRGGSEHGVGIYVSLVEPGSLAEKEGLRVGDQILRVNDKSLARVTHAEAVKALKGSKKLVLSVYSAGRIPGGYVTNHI
Design: key: below the threshold = too weak to quantify, mostly under pKd 3.1 to 4

| Binder | pKd |
| --- | --- |
| B1 | below the threshold |

What follows are binders tested against T4, DFNB31_3, Q9P202 (assay: holdup assay). Details: plain residues with an end cap or a label only (N-terminal biotin on a linker: ado-ado).
T4 sequence (Q9P202 811-907, limits assumed, looked up): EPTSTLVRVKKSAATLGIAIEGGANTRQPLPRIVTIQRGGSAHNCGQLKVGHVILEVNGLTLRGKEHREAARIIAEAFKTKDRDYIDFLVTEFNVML
Design: key: below the threshold = too weak to quantify, mostly under pKd 3.1 to 4

| Binder | pKd |
| --- | --- |
| B1 | below the threshold |

The binders below were run against DLG1_1, Q12959 (assay: holdup assay). Details: plain residues with an end cap or a label only (N-terminal biotin on a linker: ado-ado).
Design: key: below the threshold = too weak to quantify, mostly under pKd 3.1 to 4

| Binder | pKd |
| --- | --- |
| B1 | below the threshold |

What follows are binders tested against DLG4_2, P78352 (assay: holdup assay). Details: plain residues with an end cap or a label only (N-terminal biotin on a linker: ado-ado).
Design: key: below the threshold = too weak to quantify, mostly under pKd 3.1 to 4

Sequence of DLG4_2, P78352 (P78352 155-259): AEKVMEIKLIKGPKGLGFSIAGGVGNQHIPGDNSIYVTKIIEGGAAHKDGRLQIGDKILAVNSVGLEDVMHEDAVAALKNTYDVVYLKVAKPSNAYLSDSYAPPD

| Binder | pKd |
| --- | --- |
| B1 | 3.59 |

These binders were tested against DLG4_3, P78352 (assay: holdup assay). Details: plain residues with an end cap or a label only (N-terminal biotin on a linker: ado-ado).
Design: key: below the threshold = too weak to quantify, mostly under pKd 3.1 to 4

Sequence of DLG4_3, P78352 (P78352 306-403): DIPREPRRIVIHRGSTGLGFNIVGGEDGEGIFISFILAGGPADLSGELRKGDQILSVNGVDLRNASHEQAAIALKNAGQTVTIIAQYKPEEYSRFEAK

| Binder | pKd |
| --- | --- |
| B1 | below the threshold |

Each binder was assayed against DLG5_1, Q8TDM6 (assay: holdup assay). Details: plain residues with an end cap or a label only (N-terminal biotin on a linker: ado-ado).
Design: key: below the threshold = too weak to quantify, mostly under pKd 3.1 to 4

Sequence of DLG5_1, Q8TDM6 (Q8TDM6 617-713): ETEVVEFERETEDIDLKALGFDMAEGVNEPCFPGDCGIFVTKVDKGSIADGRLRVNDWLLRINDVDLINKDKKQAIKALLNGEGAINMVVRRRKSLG

| Binder | pKd |
| --- | --- |
| B1 | below the threshold |

The binders below were run against FRMPD2_3, Q68DX3 (assay: holdup assay). Details: plain residues with an end cap or a label only (N-terminal biotin on a linker: ado-ado).
Design: key: below the threshold = too weak to quantify, mostly under pKd 3.1 to 4

Sequence of FRMPD2_3, Q68DX3 (Q68DX3 1073-1166): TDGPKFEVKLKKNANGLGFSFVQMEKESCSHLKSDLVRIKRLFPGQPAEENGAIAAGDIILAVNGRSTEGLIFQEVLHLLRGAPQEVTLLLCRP

| Binder | pKd |
| --- | --- |
| B1 | below the threshold |

What follows are binders tested against GRID2IP_1, A4D2P6 (assay: holdup assay). Details: plain residues with an end cap or a label only (N-terminal biotin on a linker: ado-ado).
Design: key: below the threshold = too weak to quantify, mostly under pKd 3.1 to 4

Sequence of GRID2IP_1, A4D2P6 (A4D2P6 1-87): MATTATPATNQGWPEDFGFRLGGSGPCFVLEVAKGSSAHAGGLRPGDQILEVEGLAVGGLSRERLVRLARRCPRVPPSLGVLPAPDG

| Binder | pKd |
| --- | --- |
| B1 | below the threshold |

What follows are binders tested against GRID2IP_2, A4D2P6 (assay: holdup assay). Details: plain residues with an end cap or a label only (N-terminal biotin on a linker: ado-ado).
Design: key: below the threshold = too weak to quantify, mostly under pKd 3.1 to 4

Sequence of GRID2IP_2, A4D2P6 (A4D2P6 272-370): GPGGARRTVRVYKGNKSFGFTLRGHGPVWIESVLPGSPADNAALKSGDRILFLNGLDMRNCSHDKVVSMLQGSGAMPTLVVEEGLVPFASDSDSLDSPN

| Binder | pKd |
| --- | --- |
| B1 | 3.68 |

Each binder was assayed against T5, GRIP1_3, Q9Y3R0 (assay: holdup assay). Details: plain residues with an end cap or a label only (N-terminal biotin on a linker: ado-ado).
T5 sequence (Q9Y3R0 247-346, limits assumed, looked up): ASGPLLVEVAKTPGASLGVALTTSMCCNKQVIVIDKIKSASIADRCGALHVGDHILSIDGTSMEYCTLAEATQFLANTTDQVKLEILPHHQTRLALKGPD
Design: key: below the threshold = too weak to quantify, mostly under pKd 3.1 to 4

| Binder | pKd |
| --- | --- |
| B1 | below the threshold |

What follows are binders tested against T6, GRIP1_7, Q9Y3R0 (assay: holdup assay). Details: plain residues with an end cap or a label only (N-terminal biotin on a linker: ado-ado).
T6 sequence (Q9Y3R0 999-1096, limits assumed, looked up): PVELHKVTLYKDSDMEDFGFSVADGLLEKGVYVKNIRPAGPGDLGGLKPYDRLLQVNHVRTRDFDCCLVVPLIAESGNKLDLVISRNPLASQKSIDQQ
Design: key: below the threshold = too weak to quantify, mostly under pKd 3.1 to 4

| Binder | pKd |
| --- | --- |
| B1 | below the threshold |

The binders below were run against Inadl_8, Q8NI35 (assay: holdup assay). Details: plain residues with an end cap or a label only (N-terminal biotin on a linker: ado-ado).
Design: key: below the threshold = too weak to quantify, mostly under pKd 3.1 to 4

Sequence of Inadl_8, Q8NI35 (Q8NI35 1425-1530): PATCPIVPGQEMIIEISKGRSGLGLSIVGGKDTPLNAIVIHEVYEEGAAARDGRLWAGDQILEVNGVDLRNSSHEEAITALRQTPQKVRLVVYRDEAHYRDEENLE

| Binder | pKd |
| --- | --- |
| B1 | below the threshold |

Each binder was assayed against MAGI1_1, Q96QZ7 (assay: holdup assay). Details: plain residues with an end cap or a label only (N-terminal biotin on a linker: ado-ado).
Design: key: below the threshold = too weak to quantify, mostly under pKd 3.1 to 4

Sequence of MAGI1_1, Q96QZ7 (Q96QZ7 1-106): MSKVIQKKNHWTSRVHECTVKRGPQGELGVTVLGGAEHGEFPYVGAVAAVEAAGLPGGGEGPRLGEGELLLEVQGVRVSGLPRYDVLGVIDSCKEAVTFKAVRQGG

| Binder | pKd |
| --- | --- |
| B1 | below the threshold |

These binders were tested against MAGI1_2, Q96QZ7 (assay: holdup assay). Details: plain residues with an end cap or a label only (N-terminal biotin on a linker: ado-ado).
Design: key: below the threshold = too weak to quantify, mostly under pKd 3.1 to 4

Sequence of MAGI1_2, Q96QZ7 (Q96QZ7 456-580): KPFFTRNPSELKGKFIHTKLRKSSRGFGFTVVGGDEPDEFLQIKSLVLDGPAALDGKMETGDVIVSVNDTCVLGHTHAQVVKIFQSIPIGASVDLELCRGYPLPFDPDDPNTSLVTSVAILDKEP

| Binder | pKd |
| --- | --- |
| B1 | below the threshold |

The binders below were run against T7, MPDZ_12, O75970 (assay: holdup assay). Details: plain residues with an end cap or a label only (N-terminal biotin on a linker: ado-ado).
T7 sequence (O75970 1857-1958, limits assumed, looked up): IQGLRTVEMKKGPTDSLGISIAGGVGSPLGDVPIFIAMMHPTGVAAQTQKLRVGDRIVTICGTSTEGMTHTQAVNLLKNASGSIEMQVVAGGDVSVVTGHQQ
Design: key: below the threshold = too weak to quantify, mostly under pKd 3.1 to 4

| Binder | pKd |
| --- | --- |
| B1 | 3.52 |

What follows are binders tested against T8, MPP6, Q9NZW5 (assay: holdup assay). Details: plain residues with an end cap or a label only (N-terminal biotin on a linker: ado-ado).
T8 sequence (Q9NZW5 125-219, limits assumed, looked up): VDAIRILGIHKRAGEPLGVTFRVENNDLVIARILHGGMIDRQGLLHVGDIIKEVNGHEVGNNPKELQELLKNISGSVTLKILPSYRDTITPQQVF
Design: key: below the threshold = too weak to quantify, mostly under pKd 3.1 to 4

| Binder | pKd |
| --- | --- |
| B1 | below the threshold |

The binders below were run against NHERF2_2, Q15599 (assay: holdup assay). Details: plain residues with an end cap or a label only (N-terminal biotin on a linker: ado-ado).
Design: key: below the threshold = too weak to quantify, mostly under pKd 3.1 to 4

Sequence of NHERF2_2, Q15599 (Q15599 142-238): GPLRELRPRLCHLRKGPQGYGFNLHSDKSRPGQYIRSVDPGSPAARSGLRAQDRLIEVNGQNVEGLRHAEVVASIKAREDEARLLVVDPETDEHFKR

| Binder | pKd |
| --- | --- |
| B1 | below the threshold |

These binders were tested against T9, PDZD7_3, Q9H5P4 (assay: holdup assay). Details: plain residues with an end cap or a label only (N-terminal biotin on a linker: ado-ado).
T9 sequence (Q9H5P4 857-944, limits assumed, looked up): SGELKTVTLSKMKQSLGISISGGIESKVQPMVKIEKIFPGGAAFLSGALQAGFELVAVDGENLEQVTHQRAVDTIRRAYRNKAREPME
Design: key: below the threshold = too weak to quantify, mostly under pKd 3.1 to 4

| Binder | pKd |
| --- | --- |
| B1 | below the threshold |

What follows are binders tested against PDZRN4_1, Q6ZMN7 (assay: holdup assay). Details: plain residues with an end cap or a label only (N-terminal biotin on a linker: ado-ado).
Design: key: below the threshold = too weak to quantify, mostly under pKd 3.1 to 4

Sequence of PDZRN4_1, Q6ZMN7 (Q6ZMN7 213-318): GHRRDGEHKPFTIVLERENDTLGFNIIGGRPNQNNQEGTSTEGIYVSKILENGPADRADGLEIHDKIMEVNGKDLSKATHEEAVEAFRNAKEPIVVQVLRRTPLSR

| Binder | pKd |
| --- | --- |
| B1 | below the threshold |

These binders were tested against T10, PTPN13_1, Q12923 (assay: holdup assay). Details: plain residues with an end cap or a label only (N-terminal biotin on a linker: ado-ado).
T10 sequence (Q12923 1088-1188, limits assumed, looked up): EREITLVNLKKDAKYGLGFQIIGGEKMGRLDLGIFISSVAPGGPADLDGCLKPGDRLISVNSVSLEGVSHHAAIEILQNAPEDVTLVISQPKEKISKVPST
Design: key: below the threshold = too weak to quantify, mostly under pKd 3.1 to 4

| Binder | pKd |
| --- | --- |
| B1 | below the threshold |

Each binder was assayed against T11, SHANK1, Q9Y566 (assay: holdup assay). Details: plain residues with an end cap or a label only (N-terminal biotin on a linker: ado-ado).
T11 sequence (Q9Y566 658-767, limits assumed, looked up): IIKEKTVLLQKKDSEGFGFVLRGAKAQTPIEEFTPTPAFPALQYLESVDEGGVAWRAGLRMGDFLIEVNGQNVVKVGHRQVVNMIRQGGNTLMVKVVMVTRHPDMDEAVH
Design: key: below the threshold = too weak to quantify, mostly under pKd 3.1 to 4

| Binder | pKd |
| --- | --- |
| B1 | 3.64 |

What follows are binders tested against T12, SYNJ2BP, P57105 (assay: holdup assay). Details: plain residues with an end cap or a label only (N-terminal biotin on a linker: ado-ado).
T12 sequence (P57105 8-110, limits assumed, looked up): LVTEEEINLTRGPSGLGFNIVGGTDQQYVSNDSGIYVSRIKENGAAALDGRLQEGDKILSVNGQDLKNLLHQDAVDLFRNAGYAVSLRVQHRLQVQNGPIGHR
Design: key: below the threshold = too weak to quantify, mostly under pKd 3.1 to 4

| Binder | pKd |
| --- | --- |
| B1 | below the threshold |

Each binder was assayed against TJP1_3, Q07157 (assay: holdup assay). Details: plain residues with an end cap or a label only (N-terminal biotin on a linker: ado-ado).
Design: key: below the threshold = too weak to quantify, mostly under pKd 3.1 to 4

Sequence of TJP1_3, Q07157 (Q07157 416-512): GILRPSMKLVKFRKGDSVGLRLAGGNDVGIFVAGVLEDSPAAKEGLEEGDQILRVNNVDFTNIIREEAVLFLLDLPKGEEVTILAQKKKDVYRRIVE

| Binder | pKd |
| --- | --- |
| B1 | below the threshold |
